The record followed here is patent US20170165322A1 (CASE WESTERN RESERVE UNIVERSITY, published 2017).

This assay deals with T1, Fc control (Fc fusion partner alone) (human, UniProt P01857-1 100-330 = IgG part, limits assumed).
T1 construct: domain: Fc; Control protein, 'prepared as described previously'
Description: in vivo homing; anti-human Fc immunofluorescence on frozen sections of urethane-induced mouse lung tumors, 2 h after i.p. injection. How it is done: First, we tested if systemically administered ephrin-A1-Fc could home to urethane-induced lung tumors that overexpress EphA2. Lung tumors were induced in wild type mice with urethane. Twenty-five weeks later, mice were injected i.p. with 5 μg/g ephrin-A1-Fc. Fc fusion partner alone was used as control. Two hours after injection, mice were sacrificed, and tumors were dissected out; frozen sections were subject to immunofluorescence staining to detect whether there was a selective homing of ephrin-A1-Fc to tumor tissues relative to control Fc. […] Both FITC-conjugated donkey anti-Fc and Texas-Red-conjugated goat anti-human Fc antibodies yielded similar patterns of selective tumor homing.

B1: EphA2 kinase of mouse (urethane-induced lung tumors, primary keratinocytes, MEF, mouse lung tumor cell lines) (receptor, UniProt Q03145 26-977, looked up)
chain: KEVVLLDFAAMKGELGWLTHPYGKGWDLMQNIMDDMPIYMYSVCNVVSGDQDNWLRTNWVYREEAERIFIELKFTVRDCNSFPGGASSCKETFNLYYAESDVDYGTNFQKRQFTKIDTIAPDEITVSSDFEARNVKLNVEERMVGPLTRKGFYLAFQDIGACVALLSVRVYYKKCPEMLQSLARFPETIAVAVSDTQPLATVAGTCVDHAVVPYGGEGPLMHCTVDGEWLVPIGQCLCQEGYEKVEDACRACSPGFFKSEASESPCLECPEHTLPSTEGATSCQCEEGYFRAPEDPLSMSCTRPPSAPNYLTAIGMGAKVELRWTAPKDTGGRQDIVYSVTCEQCWPESGECGPCEASVRYSEPPHALTRTSVTVSDLEPHMNYTFAVEARNGVSGLVTSRSFRTASVSINQTEPPKVRLEDRSTTSLSVTWSIPVSQQSRVWKYEVTYRKKGDANSYNVRRTEGFSVTLDDLAPDTTYLVQVQALTQEGQGAGSKVHEFQTLSTEGSANMAVIGGVAVGVVLLLVLAGVGLFIHRRRRNLRARQSSEDVRFSKSEQLKPLKTYVDPHTYEDPNQAVLKFTTEIHPSCVARQKVIGAGEFGEVYKGTLKASSGKKEIPVAIKTLKAGYTEKQRVDFLSEASIMGQFSHHNIIRLEGVVSKYKPMMIITEYMENGALDKFLREKDGEFSVLQLVGMLRGIASGMKYLANMNYVHRDLAARNILVNSNLVCKVSDFGLSRVLEDDPEATYTTSGGKIPIRWTAPEAISYRKFTSASDVWSYGIVMWEVMTYGERPYWELSNHEVMKAINDGFRLPTPMDCPSAIYQLMMQCWQQERSRRPKFADIVSILDKLIRAPDSLKTLADFDPRVSIRLPSTSGSEGVPFRTVSEWLESIKMQQYTEHFMVAGYTAIEKVVQMSNEDIKRIGVRLPGHQKRIAYSLLGLKDQVNTVGIPI
notes: whole, on cells
Take B1: the binding result is listed as “no binding (tested: 2.5 µg/ml Fc control (i.p.))”.
